In patent US20160331811A1, “NON-AGGLOMERATING BIOCONJUGATES OF AMYLIN-MIMETIC COMPOUNDS AND POLYETHYLENEGLYCOL” (UNIVERSIDADE FEDERAL DO RIO DE JANEIRO, priority 2013, published 2016):
Ends that are not written are not given here.

Tests used:
[1] = Pharmacokinetics in swiss mice, plasma human amylin by ELISA; type: in vivo; conditions: 10 μg peptide in 100 uL saline, FIG. 6
Method: The pharmacokinetics of the monoPEGylated human amylin product were characterized in vivo in swiss mice. Mice were housed in a temperature-controlled room with a light-dark cycle of 12 h. Water and food were available ad libitum. Two groups were formed, control (free human amylin, not PEGylated) and PEGylated amylin. Animals received 100 uL of saline containing 10 μg of human amylin peptides, either free human amylin or purified monoPEGylated human amylin. Blood was collected retro-orbitally from mice (n=3 mice for each time interval), and the plasma was subjected to ELISA assay for human amylin as provided by the manufacturer (Millipore, Cat Number EZHA-52K—http://www.millipore.com/catalogue/item/ezha-52k).

[2] = Amyloid aggregation assay with thioflavin T (ThT); type: physicochemical; conditions: PBS pH 7.4, 37° C.
Method: Purified monoPEGylated human amylin of example 1 was re-suspended in DMSO and diluted to PBS pH 7.4 and allowed to incubate at 37° C. Samples were evaluated for amyloid aggregates by using the amyloid chromogenic probe thioflavin T (ThT).

RAMP2 = RAMP2 (Homo sapiens, UniProt O60895); test: RAMP-FITC fluorescence anisotropy coreceptor binding assay (RAMP2); conditions: fluorescence anisotropy of RAMP-FITC, duplicate assays, FIG. 3 and 4
Method: (§1) Purified monoPEGylated human amylin was assayed for RAMP2 and RAMP3 coreceptor binding interaction.
(§2) RAMP (receptor activity modifying protein) was labeled with fluorescein isothiocianate for 1 h at 4° C. in PBS ([…]) pH 7.4, and purified by size exclusion chromatography (SEC) in Sepharose G25 (agarose-based chromatography media, provided by the US company GE HealthCare) using the same buffer. Labelling was confirmed by UV absorbance measurements at A280 and A490, allowing estimation of coupling efficiency, relying on about 0.5 fluorescein/RAMP molecule.

RAMP3 = molecular target: T1, RAMP3 (Homo sapiens, UniProt O60896); test: RAMP-FITC fluorescence anisotropy coreceptor binding assay (RAMP3); conditions: fluorescence anisotropy of RAMP-FITC, duplicate assays, FIG. 3 and 4
T1 sequence (O60896 24-148): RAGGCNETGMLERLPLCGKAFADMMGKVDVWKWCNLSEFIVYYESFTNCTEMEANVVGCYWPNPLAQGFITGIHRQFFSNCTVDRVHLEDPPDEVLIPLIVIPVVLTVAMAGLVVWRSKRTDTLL
Method: as §1, §2

RAMP2, sequence (O60895 43-175, species assumed): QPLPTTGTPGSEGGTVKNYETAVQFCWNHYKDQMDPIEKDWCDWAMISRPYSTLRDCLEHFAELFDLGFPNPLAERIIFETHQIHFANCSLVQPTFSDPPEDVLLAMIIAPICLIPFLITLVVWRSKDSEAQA

| apparent binding affinity for coreceptor RAMP2 (RAMP2) | apparent binding affinity for coreceptor RAMP3 (RAMP3) | Substance | plasma decay / duration of stability in plasma [1] | amyloid aggregation (ThT) ([2]; 3 days, FIG. 5) | amyloid aggregation (ThT) ([2]; day 7, FIG. 5) |
| --- | --- | --- | --- | --- | --- |
| – | – | free human amylin: 37-aminoacid amyloid polypeptide of the Langerhans islets, CAS RN: 106602-62-4; not PEGylated control (KCNTATCATQRLANFLVHSSNNFGAILSSTNVGSNTY; not fully specified (C-terminus, bridges); cysteine pairing not given here) | fast plasma decay | almost all free human amylin was aggregated in amyloid form | – |
| non-specific binding | non-specific binding | HEWL: unrelated protein hen egg white lisozyme used as a control for non-specific binding | – | – | – |
| – | – | monoPEGylated human amylin: monoconjugate of human amylin and mPEG, purified by C18 reversed phase, peak at 9 Kda (example 1) (KCNTATCATQRLANFLVHSSNNFGAILSSTNVGSNTY; not fully specified (C-terminus, bridges); cysteine pairing not given here; also: mono-mPEG conjugate, site not given here; UniProt P10997 34-70, looked up) | longer duration of stability in plasma | – | no signs of aggregation |
